Data from the RNAGym collection of RNA variant scans (doi:10.7554/elife.90254).

B1: LINE1-full (parent)
chain: UACGUAGGUGGUUUUCCCCUGAUAGUGCUAAGGGGGCCUGGAAGUUUGGACUGGGCAGAGCUCAACACAGCGUGGCAAAGUGGCUGUGGCUAGACUGCCUCUCUGGAUUCCUCGUCACUCAGCAGGGCAUCUCUGAGAGAAAUGCC

Variants of: B1
Assay: self-cleavage, relative activity (ratio to wild type); higher = more cleavage; in vitro, sequencing; the parent is a self-cleaving ribozyme

| Variant | self-cleavage |
| --- | --- |
| UACGUAGGUGGUUUUCCCCUGAUAGUGCUAAGGGGGCCUGGAGGUUUGGACUGGGCAGAGCUCAACACAGCGUGGCAAAGUGGCUGUGGCUAGACUGCCUCUCUGGAUUCCACGUCACUCAGCAGGGCAUCUCUGAGAGAAAUGCC | 1.4 |
| UACGUAGGUGGUUUUCCCCUGAUAGUGCUAAGGGGGCCUGGAAGUCUGGACUGGGCGGAGCUCAACACAGCGUGGCAAAGUGGCUGUGGCUAGACUGCCUCUCUGGAUUCCUCGUCACUCAGCAGGGCAUCUCUGAGAGAAAUGCC | 1.04 |
| UACGUAGGUGAUUUUCCCCUGAUAGUGCAAAGGGGGCCUGGAAGUUUGGACUGGGCAGAGCUCAACACAGCGUGGCAAAGUGGCUGUGGCUAGACUGCCUCUCUGGAUUCCUCGUCACUCAGCAGGGCAUCUCUGAGAGAAAUGCC | 1.34 |
| UACGUAGGUGGUUUUCCCCUGAUAGUGCUUAGGGGGCCUGGAAGUGUGGACUGGGCAGAGCUCAACACAGCGUGGCAAAGUGGCUGUGGCUAGACUGCCUCUCUGGAUUCCUCGUCACUCAGCAGGGCAUCUCUGAGAGAAAUGCC | 1.14 |
| UACGUAGGUGGUUUUCCCCUGAUAGUGCUAGGGGGGCCUGGAAGUUUGGACUGGGCAGAGCUCAACACAGCGUGGCAAAGUGGCUGUGGCUAGACUGCCUCUCUGGAUUCCUCGUCACUCAGCAGGGCAUCUCUGAGAUAAAUGCC | 1.67 |
| UACGUAGGUGGUUUUCCCCUGAUAGUGCUAAGGGGGCCUGGAAGUUUGGACUGGGCAGAGCUCAACACAGCGUGGCAAAGUGGCUGUGGCUAGACUGCCCCUCUUGAUUCCUCGUCACUCAGCAGGGCAUCUCUGAGAGAAAUGCC | 2.13 |
| UACGUAGGUGGUUUUCCCCUGAUAGUGCUAAGGGGGCCUGGAAGUUUGGACUGGGCAGAGCUCAACACAGCGUGGCAAAGUGGCUGUGGCUAGACUGCCUCUCUGGAUUCCUCGUCGCUCAGCAGAGCAUCUCUGAGAGAAAUGCC | 1.96 |
| UACGUAGGUGGUUUUCCCCUGUUAGUGCUAAGGGGGCCUGGAAGUUUGGACUGGGCAGAGCUCAACACAGCGAGGCAAAGUGGCUGUGGCUAGACUGCCUCUCUGGAUUCCUCGUCACUCAGCAGGGCAUCUCUGAGAGAAAUGCC | 1.52 |
| UACGUAGGUGGUUUUCCCCUGAUAGUGCUAAGGGGGCCUGGAAGUUUGGACUGGGCAGAGCUCAACACAGCGUGGCAAAGUGGCUGUGGCUAGACUGCCUCUCUGGAUUCCUCGUCACUCCGCAGGACAUCUCUGAGAGAAAUGCC | 1.8 |
| UACGUAGGUGGUUUUCCCCUGAUAGUGCUAAGGGGGCCUGGAAGUUUGGACUGGGCAGAGCUCAACGCAGCGUGGCAAAGUGGCUGUGGCUAGACUGCCCCUCUGGAUUCCUCGUCACUCAGCAGGGCAUCUCUGAGAGAAAUGCC | 0.4 |
| UACGUAGGUGGGUUUCCCCUGAUAGUGCUAAGGGGGCCUGGAAGUUUGGACUGGGCAGAGCUCAACACAGCGUGGCAAAGUGGCUGUGGCUAGACUGCCUCUCUGGAUUCCUCGUCGCUCAGCAGGGCAUCUCUGAGAGAAAUGCC | 1.35 |
| UAUGUAGGAGGUUUUCCCCUGAUAGUGCUAAGGGGGCCUGGAAGUUUGGACUGGGCAGAGCUCAACACAGCGUGGCAAAGUGGCUGUGGCUAGACUGCCUCUCUGGAUUCCUCGUCACUCAGCAGGGCAUCUCUGAGAGAAAUGCC | 0.84 |
| UACGUAGGUGGUUUUCCCCUGAUAGUGCUAAGGGGGCCUGGAAGUUUGGACUGGGCAGAGCUCAACACAGCGUGGCAAAGGGGCUGUGGCUAGACUGCCUCUCUGGAUUCCUCGUCACUCAGCAGGGCAUCUCAGAGAGAAAUGCC | 1 |
| UACGUAGGUGGUUUUCCCCUGAUAGUGCUAAGGGGGCCUGGAAGUUUGGACUGGGCAGAGCUCAACACAGCGUGGCAAAGUGGCAGUGGCUAGACUGCCUCUCUAGAUUCCUCGUCACUCAGCAGGGCAUCUCUGAGAGAAAUGCC | 0.04 |
| UACGUAGGUGGUUUUCCCCUGAUAGUGCUAAGGGGGCCUGGAAGUUUGGACUGGGCAGAGCUCAACACUGCGUGGCAAAGUGGCUGUGGCUAGACUGCCCCUCUGGAUUCCUCGUCACUCAGCAGGGCAUCUCUGAGAGAAAUGCC | 0.08 |
| UACGUAGGUGGUUUUCCCCUGAUAGUGCUAAGGGGGUCUGGAAGUUUGGACUGGGCAGAGCUCAACACAGCGUGGCAAAGUGGCUGUGGCUAGACUGCCCCUCUGGAUUCCUCGUCACUCAGCAGGGCAUCUCUGAGAGAAAUGCC | 1.66 |
| UACGUAGGUGGUUUUCCCCUGAUAGUGCUAAGGGGGCCUGGAAGUUUGGACUGGGCAAAGCUCAACACAGCGUGGCAAAGUGGCUGUGGCUAGACUGCCUCUCUGGAUUCCUCGUCACUCAGCAGGGCAUCUCUGAGAGAAAUACC | 0.04 |
| UACGUAGGUGGUUUUCCCCUGAUAGUGCUAAGGGGGCCUGGAAGUUUGGACUGGGCAGAGCUAAACACAGCGUGGCAAAGUGGCUGUGGCUAGACUGCCUCUCUGGAUUCCUCGUCACUCAGCAGGGCAUCUCUGAGAGAAGUGCC | 0.06 |
| UACGUAGGUGGUUUUCCCCUGAUAGUGCUAAGGGGGCCUGGAAGUUUGGACUGGGCAGAGCUCAACACAGCGUGGCAAGGUGGCUGUGGCUAGACUGCCUCUCUGGAUUCCUCGUCACUUAGCAGGGCAUCUCUGAGAGAAAUGCC | 1.26 |
| UACGUAGGUGGUUUUCCCCUGAUAGUGCUAAGGGGGCCUGGAGGUUUGGACUGGGCAGAGCUCAACACAGCGUGGCAAAGUGGCAGUGGCUAGACUGCCUCUCUGGAUUCCUCGUCACUCAGCAGGGCAUCUCUGAGAGAAAUGCC | 0.1 |
